Where a chain is given by its changes, count along the chain named.
T1: FLAG-tagged cynomolgous APRIL (cynomolgus monkey, UniProt A0ACM8R0G4 110-250 (rhesus entry))
T1 construct: FLAG-tagged, expressed with TPA signal peptide; also called cyAPRIL
T1 sequence: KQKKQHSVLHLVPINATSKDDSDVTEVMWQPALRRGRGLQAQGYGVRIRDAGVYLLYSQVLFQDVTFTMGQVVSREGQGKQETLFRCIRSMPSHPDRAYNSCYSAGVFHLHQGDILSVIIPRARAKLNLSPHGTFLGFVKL

B1: 6HIS-tagged murine BAFF (ligand, mouse, UniProt Q9WU72 127-309, looked up)
chain: AFQGPEETEQDVDLSAPPAPCLPGCRHSQHDDNGMNLRNIIQDCLQLIADSDTPTIRKGTYTFVPWLLSFKRGNALEEKENKIVVRQTGYFFIYSQVLYTDPIFAMGHVIQRKKVHVFGDELSLVTLFRCIQNMPKTLPNNSCYSAGIARLEEGDEIQLAIPRENAQISRNGDDTFFGALKLL
notes: also called mBAFF; muBAFF
B2: Variant BAv9-5-Ig (Fc fusion, human)
chain: AGQCSQNEYFDRLVRACIPCQLRCSSNTPPLTCQRYCNAGVTNSVKGTNAERKSSVECPPSPAPPVAGPSVFLFPPKPKDTLMISRTPEVTCVVVDVSHEDPEVQFNWYVDGVEVHNAKTKPREEQFNSTFRVVSVLTVVHQDWLNGKEYKCKVSNKGLPAPIEKTISKTKGQPREPQVYTLPPSREEMTKNQVSLTCLVKGFYPSDISVEWESNGQPENNYKTTPPMLDSDGSFFLYSKLTVDKSRWQQGNVFSCSVMHEALHNHYTQKSLSLSPGK
notes: domain: Fc; also called Variant 9-5-Ig; BAv9-5-PIg18
B3: Variant BAv8-10-Ig (Fc fusion, human)
chain: B2 chain with R12H, V14L, L22V
notes: domain: Fc; also called Variant 8-10-Ig; BAv8-10-PIg18
B4: FLAG-tagged recombinant human APRIL (ligand)
chain: AVLTQKQKKQHSVLHLVPINATSKDDSDVTEVMWQPALRRGRGLQAQGYGVRIQDAGVYLLYSQVLFQDVTFTMGQVVSREGQGRQETLFRCIRSMPSHPDRAYNSCYSAGVFHLHQGDILSVIIPRARAKLNLSPHGTFLGFVKL
notes: KINEXA ligand; also called huAPRIL

Tests used:
BAv66-Ig = molecular target: T2, BAv66-Ig (human, UniProt P01859-1 99-326 = IgG part); experiment: BIACORE SPR
T2 construct: domain: Fc; also called Variant BAv66-Ig
T2 sequence (P01859 other isoform, or with tags, fused parts or gaps limits assumed): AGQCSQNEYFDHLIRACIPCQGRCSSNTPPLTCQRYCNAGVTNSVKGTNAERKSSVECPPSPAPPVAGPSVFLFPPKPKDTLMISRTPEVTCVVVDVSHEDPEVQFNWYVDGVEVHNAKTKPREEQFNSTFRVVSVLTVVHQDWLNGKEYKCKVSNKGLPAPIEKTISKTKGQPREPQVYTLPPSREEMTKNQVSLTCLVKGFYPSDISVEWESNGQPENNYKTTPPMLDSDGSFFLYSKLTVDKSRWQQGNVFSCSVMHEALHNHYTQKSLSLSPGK
Text: (§1) The standard kinetic assay measures binding kinetics of trimeric ligand (e.g., human BAFF, cynomolgus monkey APRIL, mouse BAFF, or mouse APRIL) coated on sensor chips and dimeric analytes (e.g., variant BCMA-Ig fusion proteins) in the mobile phase. […] For human BAFF, cynomolgus monkey APRIL, and mouse APRIL measurements, mouse monoclonal antibody (IgG1) anti-FLAG M2 (Sigma Aldrich, Cat. No. F1804) was immobilized on CM3 sensor chips (GE Healthcare, Cat. No. BR-1005-41) according to the manufacturer's protocol. Antibody was diluted to 30 μg/ml in immobilization buffer (10 mM pH 5±0.20; GE Healthcare; GE Healthcare, Catalog No. BR-1003-51). […] Unreacted sites were quenched with 35 μl of 1M ethanolamine-HCl, pH 8.5 (GE Healthcare, GE Healthcare, Cat. No. BR-1000-50). This procedure typically yielded 3,000-4,000 response units (RU) of coupled antibody.
(§2) The fusion polypeptides were diluted in HBS-EP buffer and flowed over ligand-coated sensor chips. The variant BCMA-Ig and surrogate control fusion proteins were injected at three concentrations (1.5 nM, 15 nM, and 150 nM at 30 μl/min for 2 minutes per association phase) in a single binding cycle, followed by a 20 minute incubation with HBS-EP buffer containing no protein at the same flow rate. A similar protocol was followed for Z-TACI-Ig, except that the injections were at 4.5 nM, 45 nM, and 450 nM.
(§3) The analyses described above were performed on protein preparations of representative variant BCMA ECD-Ig fusion polypeptides, as well as the Z-TACI-Ig and [S40G]huBCMA ECD-Ig control fusion polypeptides, and the data is presented in Table 1.

Variant BAv1-12-Ig [1] = molecular target: T3, Variant BAv1-12-Ig (human, UniProt P01859-1 99-326 = IgG part); experiment: BIACORE SPR
T3 construct: domain: Fc; also called Variant 1-12-Ig
Text: as §1, §2, §3
Target sequence in this assay (P01859 other isoform, or with tags, fused parts or gaps mutant limits assumed): as the sequence (P01859 other isoform, or with tags, fused parts or gaps limits assumed) above, with H12R, I14V, R15N, G22L counted along it

Variant BAv3-10-Ig [2] = molecular target: T4, Variant BAv3-10-Ig (human, UniProt P01859-1 99-326 = IgG part); experiment: BIACORE SPR
T4 construct: domain: Fc; also called Variant 3-10-Ig; BAv3-10-PIg18
Text: as §1, §2, §3
Target sequence in this assay (P01859 other isoform, or with tags, fused parts or gaps mutant limits assumed): as the sequence (P01859 other isoform, or with tags, fused parts or gaps limits assumed) above, with H12R, G22L counted along it

Variant BAv8-9-Ig [3] = molecular target: T5, Variant BAv8-9-Ig (human, UniProt P01859-1 99-326 = IgG part); experiment: BIACORE SPR
T5 construct: domain: Fc; also called Variant 8-9-Ig; BAv8-9-PIg18
Text: as §1, §2, §3
Target sequence in this assay (P01859 other isoform, or with tags, fused parts or gaps mutant limits assumed): as the sequence (P01859 other isoform, or with tags, fused parts or gaps limits assumed) above, with I14L, G22L counted along it

Variant BAv8-10-Ig [4] = molecular target: B3; experiment: BIACORE SPR
Text: as §1, §2, §3
Target sequence in this assay (P01859 other isoform, or with tags, fused parts or gaps mutant limits assumed): as the sequence (P01859 other isoform, or with tags, fused parts or gaps limits assumed) above, with I14L, G22V counted along it

Variant BAv9-1-Ig [5] = molecular target: T6, Variant BAv9-1-Ig (human, UniProt P01859-1 99-326 = IgG part); experiment: BIACORE SPR
T6 construct: domain: Fc; also called Variant 9-1-Ig; BAv9-1-pIg18
Text: as §1, §2, §3
Target sequence in this assay (P01859 other isoform, or with tags, fused parts or gaps mutant limits assumed): as the sequence (P01859 other isoform, or with tags, fused parts or gaps limits assumed) above, with G22L counted along it

Variant BAv9-5-Ig [6] = molecular target: B2; experiment: BIACORE SPR
Text: as §1, §2, §3

Variant BAv11-6-Ig [7] = molecular target: T7, Variant BAv11-6-Ig (human, UniProt P01859-1 99-326 = IgG part); experiment: BIACORE SPR
T7 construct: domain: Fc; also called Variant 11-6-Ig; BAv11-6-PIg18
Text: as §1, §2, §3
Target sequence in this assay (P01859 other isoform, or with tags, fused parts or gaps mutant limits assumed): as the sequence (P01859 other isoform, or with tags, fused parts or gaps limits assumed) above, with H12R, I14L, G22V counted along it

Variant 50238475-Ig = molecular target: T8, Variant 50238475-Ig (human, UniProt P01859-1 99-326 = IgG part); experiment: BIACORE SPR
T8 construct: domain: Fc; also called Parent 9; Variant 50238475-PIg18
T8 sequence (P01859 other isoform, or with tags, fused parts or gaps mutant limits assumed): as the sequence (P01859 other isoform, or with tags, fused parts or gaps limits assumed) above, with F10Y, P19S, G22I, T28N, L31P, T32I counted along it
Text: as §1, §2, §3

FLAG-tagged human BAFF [8] = molecular target: T9, FLAG-tagged human BAFF (human, UniProt Q9Y275 134-285, limits assumed); experiment: KinExA
T9 construct: used in BIACORE (Ex. 9) and KINEXA (Ex. 11); also called huBAFF

[9] = molecular target: B4; experiment: KinExA
FLAG-tagged human BAFF [10] = molecular target: T9, FLAG-tagged human BAFF; experiment: KinExA; remark: listed apart in the source
[11] = molecular target: B4; experiment: KinExA; remark: listed apart in the source
FLAG-tagged human BAFF [12] = molecular target: T9, FLAG-tagged human BAFF; experiment: BIACORE SPR
Text: as §1, §2, §3

[13] = molecular target: T1, FLAG-tagged cynomolgous APRIL; experiment: BIACORE SPR
Text: as §1, §2, §3

membrane-huBAFF = membrane-huBAFF (human, UniProt Q9Y275 1-285); experiment: cell-based or functional assay
FLAG-tagged human BAFF [14] = molecular target: T9, FLAG-tagged human BAFF; experiment: BIACORE SPR; remark: listed apart in the source
Method: (§4) For human BAFF, cynomolgus monkey APRIL, and mouse APRIL measurements, mouse monoclonal antibody (IgG1) anti-FLAG M2 (Sigma Aldrich, Cat. No. F1804) was immobilized on CM3 sensor chips (GE Healthcare, Cat. No. BR-1005-41) according to the manufacturer's protocol. Antibody was diluted to 30 μg/ml in immobilization buffer (10 mM pH 5±0.20; GE Healthcare; GE Healthcare, Catalog No. BR-1003-51). […] Unreacted sites were quenched with 35 μl of 1M ethanolamine-HCl, pH 8.5 (GE Healthcare, GE Healthcare, Cat. No. BR-1000-50). This procedure typically yielded 3,000-4,000 response units (RU) of coupled antibody.
as §2
(§5) Using available information from the structures and published literature, several residues in BAv8-10 were targeted for substitution with conserved as well as non-conserved residues and their effect on BAFF and APRIL binding was assessed by BIACORE.

[15] = molecular target: T1, FLAG-tagged cynomolgous APRIL; experiment: BIACORE SPR; remark: listed apart in the source
Method: as §4, §2, §5

Variant BAv1-12-Ig [16] = molecular target: T3, Variant BAv1-12-Ig; experiment: KinExA
Variant BAv3-10-Ig [17] = molecular target: T4, Variant BAv3-10-Ig; experiment: KinExA
Variant BAv8-9-Ig [18] = molecular target: T5, Variant BAv8-9-Ig; experiment: KinExA
Variant BAv8-10-Ig [19] = molecular target: B3; experiment: KinExA
Variant BAv9-1-Ig [20] = molecular target: T6, Variant BAv9-1-Ig; experiment: KinExA
Variant 9-3-Ig = molecular target: T10, Variant 9-3-Ig (human, UniProt P01859-1 99-326 = IgG part); experiment: KinExA
T10 construct: domain: Fc; also called BAv9-3

Variant BAv9-5-Ig [21] = molecular target: B2; experiment: KinExA
Variant BAv11-6-Ig [22] = molecular target: T7, Variant BAv11-6-Ig; experiment: KinExA
Variant BAv9-1-Ig [23] = molecular target: T6, Variant BAv9-1-Ig; experiment: KinExA; remark: listed apart in the source
Method: Equilibrium measurements were performed using FLAG-tagged, recombinant huBAFF and huAPRIL ligands. Fixed ligand concentrations of human BAFF or human APRIL were incubated with serial dilutions of the variant BCMA ECD-Ig fusion polypeptides, and free ligand was detected in a KINEXA 3200 Instrument. variant BCMA ECD-Ig fusion polypeptides were first diluted in equilibration buffer (1×PBS, pH 7.4, 1 mg/ml BSA) to a range of concentrations from 10 nM to 100 fM. The linear portion of the dilution series was typically 2-fold. Ligands were diluted in equilibration buffer to fixed concentrations ranging from 5 to 20 pM and then incubated with the variant BCMA-Ig dilutions in total reaction volumes ranging from 4.5 to 15 ml. Samples were incubated at room temperature for 48-72 hours to reach equilibrium. For each data point, a fresh column of 850 μl of bead slurry coated with Variant BAv-238475-Ig was introduced into the KINEXA flow cell. Equilibrated samples ranging from 1 to 5 ml reaction volume were injected at a flow rate of 0.25 ml/min. […] The DyLight 649 fluorescent signal was detected using the red filter set (620/30 nanometer excitation filter, 670/40 nanometer emission filter, 645 nanometer dichroic filter) on the KinExA instrument and converted to a voltage signal that was directly proportional to the concentration of free ligand in the equilibrated sample.
The various fusion proteins described above were expressed and purified as described previously (Examples 2 and 3 for the CET1019AS based plasmids and Examples 7 and 8 for the pcDNA based plasmids). […] The BAv9-1-Ig Fc proteins typically exist in solution as a dimeric fusion protein. The purified fusion proteins were assayed for binding activity using BIACORE (Example 9) and KINEXA (Example 11) assays.

Binder: B1
- Kd (BAv66-Ig): 62.3 pM
- Kd (Variant BAv1-12-Ig [1]): 33.9 pM
- Kd (Variant BAv3-10-Ig [2]): 14.9 pM
- Kd (Variant BAv8-9-Ig [3]): 14.9 pM
- Kd (Variant BAv8-10-Ig [4]): 17.1 pM
- Kd (Variant BAv9-1-Ig [5]): 15 pM
- Kd (Variant BAv9-5-Ig [6]): 21.6 pM
- Kd (Variant BAv11-6-Ig [7]): 18.1 pM
- Kd (Variant 50238475-Ig): 26.4 pM

Binder: B2
- fold improvement over control (FLAG-tagged human BAFF [8]): 358 fold
- fold improvement over control [9]: 0.1 fold
- Selectivity for huBAFF (KD APRIL/KD BAFF) (FLAG-tagged human BAFF [10]): 2.59 ratio
- Selectivity for huAPRIL (KD BAFF/KD APRIL) [11]: 0.39 ratio
- fold improvement KD vs control (FLAG-tagged human BAFF [12]): 10.9 fold
- fold improvement KD vs control [13]: 0.5 fold
- IC50 (read off the curve) (NFkappaB luciferase signal of HEK293-huBCMA reporter cells stimulated with HEK-293 cells expressing membrane huBAFF) (membrane-huBAFF): ~500 pM

Binder: B3
- fold improvement over control (FLAG-tagged human BAFF [8]): 233 fold
- fold improvement over control [9]: 0.05 fold
- Selectivity for huBAFF (KD APRIL/KD BAFF) (FLAG-tagged human BAFF [10]): 3.33 ratio
- Selectivity for huAPRIL (KD BAFF/KD APRIL) [11]: 0.3 ratio
- fold improvement KD vs control (FLAG-tagged human BAFF [12]): 5.3 fold
- fold improvement KD vs control [13]: 0.3 fold
- fold improvement over control (FLAG-tagged human BAFF [14]): 13.1 fold
- fold improvement over control [15]: 0.75 fold

Binder: B4
- Kd (Variant BAv1-12-Ig [16]): 0.275 pM
- Kd (Variant BAv3-10-Ig [17]): 0.337 pM
- Kd (Variant BAv8-9-Ig [18]): 0.0224 pM
- Kd (Variant BAv8-10-Ig [19]): 3.23 pM
- Kd (Variant BAv9-1-Ig [20]): 0.198 pM
- Kd (Variant 9-3-Ig): 18.9 pM
- Kd (Variant BAv9-5-Ig [21]): 1.64 pM
- Kd (Variant BAv11-6-Ig [22]): 1.63 pM
- Kd (Variant BAv9-1-Ig [23]): 0.198 pM
